Earlier results on two substances are cited in article PMC4740375.

As a reminder, the Kd is the constant that tells how readily two partners part at equilibrium.

Where two headings read alike, the source gives them in different places.

The target of series [1] is CD28 (Homo sapiens) (UniProt P10747).
Series [2] shares this target. This is another data set of the same source.

Take CD80 (from UniProt P33681): the Kd with CD28 (Homo sapiens) [1] was 4 µM. As for CD86 (from UniProt P42081), the dissociation constant (Kd) in the series with CD28 (Homo sapiens) [2] is 20 µM.
